Data reported in patent US20110263454A1, “Methods of Identifying Functional Characteristics of Promoters, Transcription Modifying Proteins and Transcription Modulating Agents” (Salk Institute for Biological Studies, priority 2008, published 2011).

How the values were obtained:
Bmal1 promoter = assay: NHR-promoter luciferase screen, Bmal1 promoter; assay type: cell-based, mouse; details: for Luc. act., normalized to lacZ / Normalized Luc. act., normalized to control: Bmal1 promoter, HR component without or with ligand; for mBmal1 promoter reporter activity: transcription factor +/- ligand, control = 1.00
How it was run: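 CV-1 cells co-transfected with 50 ng NHR (V5H6-tagged, pcDNA3.1; homodimer or RXR heterodimer), 100 ng Bmal1 promoter-luciferase and 50 ng LacZ. Luciferase was normalized to LacZ and to a no-NHR/ligand control.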

SREBP1c promoter = assay: NHR-promoter luciferase screen, SREBP1c promoter; assay type: cell-based, mouse; details: for Luc. act., normalized to lacZ / Normalized Luc. act., normalized to control: SREBP1c promoter, HR component without or with ligand; for mSREBP1-c promoter reporter activity: transcription factor +/- ligand, control = 1.00
How it was run: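 CV-1 cells co-transfected with 50 ng NHR (homodimer or NHR/RXR heterodimer), 100 ng promoter-luciferase and 50 ng LacZ. Luciferase read at 48 h, normalised to LacZ and to a no-NHR/no-ligand control.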

B1: CTF3: COUP-TF3 (NR2F6), cDNA driver (protein, UniProt P10588 1-404, looked up)
Nuclear receptor subfamily 2 …: MAMVTGGWGGPGGDTNGVDKAGGYPRAAEDDSASPPGAASDAEPGDEERPGLQVDCVVCGDKSSGKHYGVFTCEGCKSFFKRSIRRNLSYTCRSNRDCQIDQHHRNQCQYCRLKKCFRVGMRKEAVQRGRIPHSLPGAVAASSGSPPGSALAAVASGGDLFPGQPVSELIAQLLRAEPYPAAAGRFGAGGGAAGAVLGIDNVCELAARLLFSTVEWARHAPFFPELPVADQVALLRLSWSELFVLNAAQAALPLHTAPLLAAAGLHAAPMAAERAVAFMDQVRAFQEQVDKLGRLQVDSAEYGCLKAIALFTPDACGLSDPAHVESLQEKAQVALTEYVRAQYPSQPQRFGRLLLRLPALRAVPASLISQLFFMRLVGKTPIETLIRDMLLSGSTFNWPYGSGQ
Luc. act., normalized to lacZ (Bmal1 promoter): 21.2 | Normalized Luc. act., normalized to control (Bmal1 promoter): 1.4 | mBmal1 promoter reporter activity (Bmal1 promoter): 1.35 | Luc. act., normalized to lacZ (SREBP1c promoter): 230.3 | Normalized Luc. act., normalized to control (SREBP1c promoter): 0.7 | mSREBP1-c promoter reporter activity (SREBP1c promoter): 0.71

B2: ERR3: Estrogen Related Receptor γ (NR3B3, ERRg), cDNA driver (protein, UniProt P62508 1-458, looked up)
Estrogen-related receptor …: MDSVELCLPESFSLHYEEELLCRMSNKDRHIDSSCSSFIKTEPSSPASLTDSVNHHSPGGSSDASGSYSSTMNGHQNGLDSPPLYPSAPILGGSGPVRKLYDDCSSTIVEDPQTKCEYMLNSMPKRLCLVCGDIASGYHYGVASCEACKAFFKRTIQGNIEYSCPATNECEITKRRRKSCQACRFMKCLKVGMLKEGVRLDRVRGGRQKYKRRIDAENSPYLNPQLVQPAKKPYNKIVSHLLVAEPEKIYAMPDPTVPDSDIKALTTLCDLADRELVVIIGWAKHIPGFSTLSLADQMSLLQSAWMEILILGVVYRSLSFEDELVYADDYIMDEDQSKLAGLLDLNNAILQLVKKYKSMKLEKEEFVTLKAIALANSDSMHIEDVEAVQKLQDVLHEALQDYEAGQHMEDPRRAGKMLMTLPLLRQTSTKAVQHFYNIKLEGKVPMHKLFLEMLEAKV
Luc. act., normalized to lacZ (Bmal1 promoter): 9.5 | Normalized Luc. act., normalized to control (Bmal1 promoter): 0.6 | mBmal1 promoter reporter activity (Bmal1 promoter): 0.61 | Luc. act., normalized to lacZ (SREBP1c promoter): 406.7 | Normalized Luc. act., normalized to control (SREBP1c promoter): 1.3 | mSREBP1-c promoter reporter activity (SREBP1c promoter): 1.26

B3: CTF2: COUP-TF2 (NR2F2), cDNA driver (protein, UniProt P24468 1-414, looked up)
COUP transcription factor 2: MAMVVSTWRDPQDEVPGSQGSQASQAPPVPGPPPGAPHTPQTPGQGGPASTPAQTAAGGQGGPGGPGSDKQQQQQHIECVVCGDKSSGKHYGQFTCEGCKSFFKRSVRRNLSYTCRANRNCPIDQHHRNQCQYCRLKKCLKVGMRREAVQRGRMPPTQPTHGQFALTNGDPLNCHSYLSGYISLLLRAEPYPTSRFGSQCMQPNNIMGIENICELAARMLFSAVEWARNIPFFPDLQITDQVALLRLTWSELFVLNAAQCSMPLHVAPLLAAAGLHASPMSADRVVAFMDHIRIFQEQVEKLKALHVDSAEYSCLKAIVLFTSDACGLSDVAHVESLQEKSQCALEEYVRSQYPNQPTRFGKLLLRLPSLRTVSSSVIEQLFFVRLVGKTPIETLIRDMLLSGSSFNWPYMAIQ
Luc. act., normalized to lacZ (Bmal1 promoter): 29.5 | Normalized Luc. act., normalized to control (Bmal1 promoter): 1.9 | mBmal1 promoter reporter activity (Bmal1 promoter): 1.89 | Luc. act., normalized to lacZ (SREBP1c promoter): 455.6 | Normalized Luc. act., normalized to control (SREBP1c promoter): 1.4 | mSREBP1-c promoter reporter activity (SREBP1c promoter): 1.41

B4: CTF1: COUP-TF1 (NR2F1), cDNA driver (protein, UniProt P10589 1-423, looked up)
COUP transcription factor 1: MAMVVSSWRDPQDDVAGGNPGGPNPAAQAARGGGGGAGEQQQQAGSGAPHTPQTPGQPGAPATPGTAGDKGQGPPGSGQSQQHIECVVCGDKSSGKHYGQFTCEGCKSFFKRSVRRNLTYTCRANRNCPIDQHHRNQCQYCRLKKCLKVGMRREAVQRGRMPPTQPNPGQYALTNGDPLNGHCYLSGYISLLLRAEPYPTSRYGSQCMQPNNIMGIENICELAARLLFSAVEWARNIPFFPDLQITDQVSLLRLTWSELFVLNAAQCSMPLHVAPLLAAAGLHASPMSADRVVAFMDHIRIFQEQVEKLKALHVDSAEYSCLKAIVLFTSDACGLSDAAHIESLQEKSQCALEEYVRSQYPNQPSRFGKLLLRLPSLRTVSSSVIEQLFFVRLVGKTPIETLIRDMLLSGSSFNWPYMSIQCS
Luc. act., normalized to lacZ (Bmal1 promoter): 26.1 | Normalized Luc. act., normalized to control (Bmal1 promoter): 1.7 | mBmal1 promoter reporter activity (Bmal1 promoter): 1.67 | Luc. act., normalized to lacZ (SREBP1c promoter): 205.9 | Normalized Luc. act., normalized to control (SREBP1c promoter): 0.6 | mSREBP1-c promoter reporter activity (SREBP1c promoter): 0.64

B5: hMR: Mineralocorticoid Receptor (NR3C2, MR), cDNA driver (protein, UniProt P08235 1-984, looked up)
Mineralocorticoid receptor: METKGYHSLPEGLDMERRWGQVSQAVERSSLGPTERTDENNYMEIVNVSCVSGAIPNNSTQGSSKEKQELLPCLQQDNNRPGILTSDIKTELESKELSATVAESMGLYMDSVRDADYSYEQQNQQGSMSPAKIYQNVEQLVKFYKGNGHRPSTLSCVNTPLRSFMSDSGSSVNGGVMRAVVKSPIMCHEKSPSVCSPLNMTSSVCSPAGINSVSSTTASFGSFPVHSPITQGTPLTCSPNVENRGSRSHSPAHASNVGSPLSSPLSSMKSSISSPPSHCSVKSPVSSPNNVTLRSSVSSPANINNSRCSVSSPSNTNNRSTLSSPAASTVGSICSPVNNAFSYTASGTSAGSSTLRDVVPSPDTQEKGAQEVPFPKTEEVESAISNGVTGQLNIVQYIKPEPDGAFSSSCLGGNSKINSDSSFSVPIKQESTKHSCSGTSFKGNPTVNPFPFMDGSYFSFMDDKDYYSLSGILGPPVPGFDGNCEGSGFPVGIKQEPDDGSYYPEASIPSSAIVGVNSGGQSFHYRIGAQGTISLSRSARDQSFQHLSSFPPVNTLVESWKSHGDLSSRRSDGYPVLEYIPENVSSSTLRSVSTGSSRPSKICLVCGDEASGCHYGVVTCGSCKVFFKRAVEGQHNYLCAGRNDCIIDKIRRKNCPACRLQKCLQAGMNLGARKSKKLGKLKGIHEEQPQQQQPPPPPPPPQSPEEGTTYIAPAKEPSVNTALVPQLSTISRALTPSPVMVLENIEPEIVYAGYDSSKPDTAENLLSTLNRLAGKQMIQVVKWAKVLPGFKNLPLEDQITLIQYSWMCLSSFALSWRSYKHTNSQFLYFAPDLVFNEEKMHQSAMYELCQGMHQISLQFVRLQLTFEEYTIMKVLLLLSTIPKDGLKSQAAFEEMRTNYIKELRKMVTKCPNNSGQSWQRFYQLTKLLDSMHDLVSDLLEFCFYTFRESHALKVEFPAMLVEIISDQLPKVESGNAKPLYFHRK
Luc. act., normalized to lacZ (Bmal1 promoter): 18.2 | Normalized Luc. act., normalized to control (Bmal1 promoter): 1.2 | mBmal1 promoter reporter activity (Bmal1 promoter): 1.17 | Luc. act., normalized to lacZ (SREBP1c promoter): 223.2 | Normalized Luc. act., normalized to control (SREBP1c promoter): 0.7 | mSREBP1-c promoter reporter activity (SREBP1c promoter): 0.69
